Test in all cases: two-hybrid library CCNG1;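 further: natural log of median RNA to DNA barcode read ratio; higher means stronger binding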
Assay [1] has as its target T1, P2A-bP.
T1 chain: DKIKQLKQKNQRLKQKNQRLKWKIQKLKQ

In assay [2] the target is T2, P5A-bP.
T2 chain: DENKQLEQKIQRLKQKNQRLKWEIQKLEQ

The target of assay [3] is T3, P9A-bP.
T3 chain: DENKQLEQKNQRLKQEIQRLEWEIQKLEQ

The target of assay [4] is T4, P6A-bP.
T4 chain: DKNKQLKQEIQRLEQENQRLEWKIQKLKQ

In assay [5] the target is T5, P4A-bP.
T5 chain: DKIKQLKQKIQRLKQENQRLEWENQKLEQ

Assay [6] deals with T6, P8A-bP.
T6 chain: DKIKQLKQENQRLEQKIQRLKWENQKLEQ

The target of assay [7] is T7, P7A-bP.
T7 chain: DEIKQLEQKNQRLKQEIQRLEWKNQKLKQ

Assay [8] has as its target T8, P1A-bP.
T8 chain: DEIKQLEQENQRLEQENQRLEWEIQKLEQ

The target of assay [9] is T9, P3A-bP.
T9 chain: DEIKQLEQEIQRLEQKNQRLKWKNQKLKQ

Assay [10] concerns the target T10, 4H1449-bA.
T10 chain: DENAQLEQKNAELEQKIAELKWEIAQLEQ

Assay [11] deals with T11, 4H626-bA.
T11 chain: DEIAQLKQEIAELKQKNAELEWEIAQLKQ

The target of assay [12] is T12, 4H3162-bA.
T12 chain: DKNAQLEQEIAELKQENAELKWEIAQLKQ

Assay [13] has as its target T13, 4H619-bN.
T13 chain: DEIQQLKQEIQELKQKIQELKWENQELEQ

Assay [14] deals with T14, 4H1899-bA.
T14 chain: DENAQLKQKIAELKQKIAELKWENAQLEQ

The target in assay [15] is T15, 4H570-bA.
T15 chain: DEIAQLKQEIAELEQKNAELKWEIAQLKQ

Assay [16] has as its target T16, 4H3613-bA.
T16 chain: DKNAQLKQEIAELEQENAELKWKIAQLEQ

Assay [17] concerns the target T17, 4H3497-bA.
T17 chain: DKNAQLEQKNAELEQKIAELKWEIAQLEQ

Assay [18] addresses T18, 4H591-bA.
T18 chain: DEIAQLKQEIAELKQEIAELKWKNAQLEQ

Assay [19] concerns the target T19, 4H1985-bA.
T19 chain: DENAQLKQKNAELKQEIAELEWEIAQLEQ

Assay [20] has as its target T20, 4H3277-bA.
T20 chain: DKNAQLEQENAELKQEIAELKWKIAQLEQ

Assay [21] concerns the target T21, 4H906-bA.
T21 chain: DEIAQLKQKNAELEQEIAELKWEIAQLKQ

For assay [22], the target named is T22, 4H3628-bA.
T22 chain: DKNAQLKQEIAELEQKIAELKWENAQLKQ

Assay [23] deals with T23, 4H3175-bA.
T23 chain: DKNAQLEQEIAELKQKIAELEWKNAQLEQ

Assay [24] has as its target T24, 4H3298-bA.
T24 chain: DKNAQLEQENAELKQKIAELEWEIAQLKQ

Assay [25] concerns the target T25, 4H3974-bA.
T25 chain: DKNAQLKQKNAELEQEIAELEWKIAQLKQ

The target in assay [26] is T26, 4H1544-bA.
T26 chain: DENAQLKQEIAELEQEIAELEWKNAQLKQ

Assay [27] has as its target T27, 4H2691-bA.
T27 chain: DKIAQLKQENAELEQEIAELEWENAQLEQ

Assay [28] addresses T28, 4H3926-bA.
T28 chain: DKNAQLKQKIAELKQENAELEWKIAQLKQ

For assay [29], the target named is T29, 4H850-bA.
T29 chain: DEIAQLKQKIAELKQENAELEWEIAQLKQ

Assay [30] addresses T30, 4H1710-bA.
T30 chain: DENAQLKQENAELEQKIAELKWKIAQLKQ

In assay [31] the target is T31, 4H3462-bA.
T31 chain: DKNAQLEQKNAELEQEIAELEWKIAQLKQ

Assay [32] deals with T32, 4H3817-bA.
T32 chain: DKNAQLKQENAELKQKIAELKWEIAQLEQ

In assay [33] the target is T33, 4H3858-bA.
T33 chain: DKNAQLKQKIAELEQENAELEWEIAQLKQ

Assay [34] has as its target T34, 4H1373-bA.
T34 chain: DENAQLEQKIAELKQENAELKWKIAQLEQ

As for DEIKQLEQENQRLEQENQRLEWEIQKLEQ [P1A-bP], the interaction score is 1.97 in assay [1]; -0.589 in [2]; -2.64 in [3]; -0.151 in [4]; -1.23 in assay [5]; -0.0351 in [6]. The figures for the interaction score in [7], in [8] and in assay [9] were -0.745, -1.8 and -0.629, respectively.

Take DENAQLEQKIAELKQENAELKWKIAQLEQ [4H1373-bA]: the interaction score in assay [10] was -1.22; in [11], -1.61; in [12], -0.314; in assay [13], -0.473; in assay [14], -1.03; in assay [15], -0.799. The interaction score in assay [16] is 1.71; in assay [17] it was -1.17; in assay [18] it was -0.592; in [19] it was -0.533; in assay [20] it was -0.594; in assay [21], -1.26. Moreover, the interaction score is -0.805 in assay [22]; -0.89 in [23]; -0.776 in assay [24]; -0.681 in [25]; -0.914 in assay [26]; 0.119 in assay [27]. Further, the interaction score in [28] is 2.27; in assay [29] it was -0.104; in assay [30] it was -0.946; in assay [31], -0.757; in assay [32] it was -0.693; in [33], 1.36. Also, the interaction score in assay [34] worked out at 0.464.

These data come from publication PMC10397247.
